One test has as its system L363 cells. Nature of the test: JNG assay, co-culture with L363 cells. Type of test: cell-based. The settings on record: co-culture with L363. The method, boiled down: (§1)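 Jurkat NFAT-GFP (JNG) cells stably transduced with SARs by lentivirus, with drug selection where the construct carried a resistance gene, then co-cultured with target cells at E:T ~1:2 for ~4–18 h. % GFP-positive cells measured by FACS against parental JNG; +/- to 5+ correspond to ~5–50% GFP-positive.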

The subject of another test is RAJI cells. Briefly: JNG assay, co-culture with RAJI cells. Type of test: cell-based. The settings on record: JNG cells expressing construct, co-culture with Raji. The method, boiled down:
as §1

B1: 22090 (protein)
chain: MALPVTALLLPLALLLHAARPQLQLQESGPGLVKPSETLSLTCTVSGDSISSGDYYWGWIRQPPGKGLEWIGHIYYSGVTYYNPSLKSRVTISVDTSRNQFSLKLSSVTAADTAVYYCTREDSSNWRSRGQGTLVTVSSLEDKTHTCPPCPAGRADCGFTSESYQQGVLSATILYEILLGKATLYAVLVSALVLMAMVKRKDSRGRAKRSGSGATNFSLLKQAGDVEENPGPTSMDWIWRILFLVGAATGAHSFEVQLLESGGGLIQPGGSLRLSCAASGFTFSSHAMTWVRQAPGKGLEWVSAISGSGDYTHYADSVKGRFTISRDNSKNTVYLQMNSLRAEDSAVYYCAKDEDGGSLLGHRGQGTLVTVSSTRIQNPDPAVYQLRDSKSSDKSVCLFTDFDSQTNVSQSKDSDVYITDKCVLDMRSMDFKSNSAVAWSNKSDFACANAFNNSIIPEDTFFPSPESSCDVKLVEKSFETDTNLNFQNLSVIGFRILLLKVAGFNLLMTLRLWSSRAKRSGSGVKQTLNFDLLKLAGDVESNPGPSRGHMTEYKPTVRLATRDDVPRAVRTLAAAFADYPATRHTVDPDRHIERVTELQELFLTRVGLDIGKVWVADDGAAVAVWTTPESVEAGAVFAEIGPRMAELSGSRLAAQQQMEGLLAPHRPKEPAWFLATVGVSPDHQGKGLGSAVVLPGVEAAERAGVPAFLETSAPRNLPFYERLGFTVTADVEVPEGPRTWCMTRKPGA
Take B1: the “NFAT-GFP ASSAY: L363” value in the test with L363 cells was 3+ (refer to approximately 5%, 10%, 20%, 30%, 40% and 50% GFP positive cells).

B2: 22152 (protein)
chain: MALPVTALLLPLALLLHAARPEVQLLESGGGLVQPGGSLRLSCAASGFTFSSYAMSWVRQAPGKGLEWVSSISGSGDYIYYADSVKGRFTISRDISKNTLYLQMNSLRAEDTAVYYCAKEGTGANSSLADYRGQGTLVTVSSGTGGGGSGGGGSGGGGSEFSYVLTQPPSVSVAPGQTARITCGGNNIGGKSVHWYQQPPGQAPVVVVYDDSDRPSGIPERFSGSNSGNTATLTISRVEAGDEAVYYCQVWDSSSDHVVFGGGTKLTVLLEDLKNVFPPEVAVFEPSEAEISHTQKATLVCLATGFYPDHVELSWWVNGKEVHSGVCTDPQPLKEQPALNDSRYCLSSRLRVSATFWQNPRNHFRCQVQFYGLSENDEWTQDRAKPVTQIVSAEAWGRADCGFTSESYQQGVLSATILYEILLGKATLYAVLVSALVLMAMVKRKDSRGRAKRSGSGATNFSLLKQAGDVEENPGPTSMDWIWRILFLVGAATGAHSFEQLQLQESGPGLVKPSETLSLTCTVSGGSISSSSYFWGWIRQPPGKGLEWIGSIYYSGITYYNPSLKSRVTISVDTSKNQFSLKLSSVTAADTAVYYCARHDGAVAGLFDYWGQGTLVTVSSATRIQNPDPAVYQLRDSKSSDKSVCLFTDFDSQTNVSQSKDSDVYITDKCVLDMRSMDFKSNSAVAWSNKSDFACANAFNNSIIPEDTFFPSPESSCDVKLVEKSFETDTNLNFQNLSVIGFRILLLKVAGFNLLMTLRLWSSRAKRSGSGVKQTLNFDLLKLAGDVESNPGPSRGHMTEYKPTVRLATRDDVPRAVRTLAAAFADYPATRHTVDPDRHIERVTELQELFLTRVGLDIGKVWVADDGAAVAVWTTPESVEAGAVFAEIGPRMAELSGSRLAAQQQMEGLLAPHRPKEPAWFLATVGVSPDHQGKGLGSAVVLPGVEAAERAGVPAFLETSAPRNLPFYERLGFTVTADVEVPEGPRTWCMTRKPGA
With B2, the “NFAT-GFP ASSAY: L363” value with L363 cells is 2+ (refer to approximately 5%, 10%, 20%, 30%, 40% and 50% GFP positive cells).

B3: 22099 (protein)
chain: MALPVTALLLPLALLLHAARPQVQLVESGGGLVQPGGSLRLSCAASGFTFTNHAMSWVRQAPGKGLELVSSISGNGRTTYYADSVKGRFTISRDISKNTLDLQMNSLRAEDTAVYYCAKDGGETLVDSRGQGTLVTVSSLEGQPKANPTVTLFPPSSEELQANKATLVCLISDFYPGAVTVAWKADGSPVKAGVETTKPSKQSNNKYAASSYLSLTPEQWKSHRSYSCQVTHEGSTVEKTVAPTECSGRADCGFTSESYQQGVLSATILYEILLGKATLYAVLVSALVLMAMVKRKDSRGRAKRSGSGATNFSLLKQAGDVEENPGPTSMDWIWRILFLVGAATGAHSFEEVQLLESGGGLVQPGGSLRLSCAASGFTFSSYAMSWVRQAPGKGLEWVSSISGSGDYIYYADSVKGRFTISRDISKNTLYLQMNSLRAEDTAVYYCAKEGTGANSSLADYRGQGTLVTVSSTRASTKGPSVFPLAPSSKSTSGGTAALGCLVKDYFPEPVTVSWNSGALTSGVHTFPAVLQSSGLYSLSSVVTVPSSSLGTQTYICNVNHKPSNTKVDKRVEPKSCIPEDTFFPSPESSCDVKLVEKSFETDTNLNFQNLSVIGFRILLLKVAGFNLLMTLRLWSSRAKRSGSGVKQTLNFDLLKLAGDVESNPGPSRGHMTEYKPTVRLATRDDVPRAVRTLAAAFADYPATRHTVDPDRHIERVTELQELFLTRVGLDIGKVWVADDGAAVAVWTTPESVEAGAVFAEIGPRMAELSGSRLAAQQQMEGLLAPHRPKEPAWFLATVGVSPDHQGKGLGSAVVLPGVEAAERAGVPAFLETSAPRNLPFYERLGFTVTADVEVPEGPRTWCMTRKPGA
Consider B3, for which the “NFAT-GFP ASSAY: L363” value in the test on L363 cells is “L363 (2+) (refer to approximately 5%, 10%, 20%, 30%, 40% and 50% GFP positive cells)”.

B4: 22083 (protein)
chain: MALPVTALLLPLALLLHAARPQLQLQESGPGLVKPSETLSLTCTVSGDSISSGDYYWGWIRQPPGKGLEWIGHIYYSGVTYYNPSLKSRVTISVDTSRNQFSLKLSSVTAADTAVYYCTREDSSNWRSRGQGTLVTVSSLESGGGGSFEEVQLLESGGGLVQPGGSLRLSCAASGFTFSSYAMSWVRQAPGKGLEWVSSISGSGDYIYYADSVKGRFTISRDISKNTLYLQMNSLRAEDTAVYYCAKEGTGANSSLADYRGQGTLVTVSSTRDKTHTCPPCPAIPEDTFFPSPESSCDVKLVEKSFETDTNLNFQNLSVIGFRILLLKVAGFNLLMTLRLWSS
For the molecule B4, the “NFAT-GFP ASSAY: L363” value with L363 cells is “+/- (refer to approximately 5%, 10%, 20%, 30%, 40% and 50% GFP positive cells)”. The “NFAT-GFP ASSAY: Raji” value in the test with RAJI cells is “+/- (refer to approximately 5%, 10%, 20%, 30%, 40% and 50% GFP positive cells)”.

B5: 22153 (protein)
chain: MALPVTALLLPLALLLHAARPACEVQLLESGGGLIQPGGSLRLSCAASGFTFSSHAMTWVRQAPGKGLEWVSAISGSGDYTHYADSVKGRFTISRDNSKNTVYLQMNSLRAEDSAVYYCAKDEDGGSLLGHRGQGTLVTVSSGTGGGGSGGGGSGGGGSEFSYVLTQPPSVSVAPGQTARITCGGNNIGGKSVHWYQQPPGQAPVVVVYDDSDRPSGIPERFSGSNSGNTATLTISRVEAGDEAVYYCQVWDSSSDHVVFGGGTKLTVLLEGQPKANPTVTLFPPSSEELQANKATLVCLISDFYPGAVTVAWKADGSPVKAGVETTKPSKQSNNKYAASSYLSLTPEQWKSHRSYSCQVTHEGSTVEKTVAPTECSPIKTDVITMDPKDNCSKDANDTLLLQLTNTSAYYMYLLLLLKSVVYFAIITCCLLRRTAFCCNGEKSRAKRSGSGATNFSLLKQAGDVEENPGPTSATMDWIWRILFLVGAATGAHSGPQVQLQESGGGLAQAGGSLRLSCAASGRTFSMGWFRQAPGKEREFVAAITYSGGSPYYASSVRGRFTISRDNAKNTVYLQMNSLKPEDTAVYYCAANPTYGSDWNAENWGQGTQVTVSSGSGGGGSGGGGSGGGGSFEQLQLQESGPGLVKPSETLSLTCTVSGGSISSSSYFWGWIRQPPGKGLEWIGSIYYSGITYYNPSLKSRVTISVDTSKNQFSLKLSSVTAADTAVYYCARHDGAVAGLFDYWGQGTLVTVSSATRASTKGPSVFPLAPSSKSTSGGTAALGCLVKDYFPEPVTVSWNSGALTSGVHTFPAVLQSSGLYSLSSVVTVPSSSLGTQTYICNVNHKPSNTKVDKRVEPKSCEVKTDSTDHVKPKETENTKQPSKSCHKPKAIVHTEKVNMMSLTVLGLRMLFAKTVAVNFLLTAKLFFLRAKRSGSGVKQTLNFDLLKLAGDVESNPGPSRGHMTEYKPTVRLATRDDVPRAVRTLAAAFADYPATRHTVDPDRHIERVTELQELFLTRVGLDIGKVWVADDGAAVAVWTTPESVEAGAVFAEIGPRMAELSGSRLAAQQQMEGLLAPHRPKEPAWFLATVGVSPDHQGKGLGSAVVLPGVEAAERAGVPAFLETSAPRNLPFYERLGFTVTADVEVPEGPRTWCMTRKPGA
On to B5, for which the “NFAT-GFP ASSAY: L363” value in the test on L363 cells is 2+ (refer to approximately 5%, 10%, 20%, 30%, 40% and 50% GFP positive cells).

B6: 22098 (protein)
chain: MALPVTALLLPLALLLHAARPQVQLVESGGGLVQPGGSLRLSCAASGFTFTNHAMSWVRQAPGKGLELVSSISGNGRTTYYADSVKGRFTISRDISKNTLDLQMNSLRAEDTAVYYCAKDGGETLVDSRGQGTLVTVSSLEGQPKANPTVTLFPPSSEELQANKATLVCLISDFYPGAVTVAWKADGSPVKAGVETTKPSKQSNNKYAASSYLSLTPEQWKSHRSYSCQVTHEGSTVEKTVAPTECSPIKTDVITMDPKDNCSKDANDTLLLQLTNTSAYYMYLLLLLKSVVYFAIITCCLLRRTAFCCNGEKSRAKRSGSGATNFSLLKQAGDVEENPGPTSMDWIWRILFLVGAATGAHSFEEVQLLESGGGLVQPGGSLRLSCAASGFTFSSYAMSWVRQAPGKGLEWVSSISGSGDYIYYADSVKGRFTISRDISKNTLYLQMNSLRAEDTAVYYCAKEGTGANSSLADYRGQGTLVTVSSTRASTKGPSVFPLAPSSKSTSGGTAALGCLVKDYFPEPVTVSWNSGALTSGVHTFPAVLQSSGLYSLSSVVTVPSSSLGTQTYICNVNHKPSNTKVDKRVEPKSCEVKTDSTDHVKPKETENTKQPSKSCHKPKAIVHTEKVNMMSLTVLGLRMLFAKTVAVNFLLTAKLFFLRAKRSGSGVKQTLNFDLLKLAGDVESNPGPSRGHMTEYKPTVRLATRDDVPRAVRTLAAAFADYPATRHTVDPDRHIERVTELQELFLTRVGLDIGKVWVADDGAAVAVWTTPESVEAGAVFAEIGPRMAELSGSRLAAQQQMEGLLAPHRPKEPAWFLATVGVSPDHQGKGLGSAVVLPGVEAAERAGVPAFLETSAPRNLPFYERLGFTVTADVEVPEGPRTWCMTRKPGA
With B6, in the test with L363 cells, the “NFAT-GFP ASSAY: L363” value was “L363 (4+) (refer to approximately 5%, 10%, 20%, 30%, 40% and 50% GFP positive cells)”.
